How the values were obtained:
[1] = target: MM_0014, cis-prenyltransferase from Methanosarcina mazei (tag-free) (Methanosarcina mazei); experiment: crystal structure; substrate-free MM_0014, hanging drop, Index No. 64 reagent with glycerol 3:1, 25 °C; space group C222_(1), two protein molecules per asymmetric unit; the same crystals soaked with IPP or DMAPP
[2] = target: MM_0014, cis-prenyltransferase from Methanosarcina mazei (tag-free) (Methanosarcina mazei); experiment: crystal structure; MM_0014 cocrystallised with FPP and MgCl2 (co-FG), Index No. 89 reagent with glycerol 3:1, 20 °C; space group P2_(1)2_(1)2_(1), eight protein molecules per asymmetric unit; the same crystals soaked with DMAPP

stoichiometry N [1]: 2
stoichiometry N [2]: 2
Substance: MM_0014, cis-prenyltransferase from Methanosarcina mazei (tag-free) (enzyme)
